The text below walks through data of IntAct's records for PubMed 35512704.

To fix the notation:
B1: Mothers against decapentaplegic homolog 4 (Homo sapiens), Q13485 (parent)
chain: MDNMSITNTPTSNDACLSIVHSLMCHRQGGESETFAKRAIESLVKKLKEKKDELDSLITAITTNGAHPSKCVTIQRTLDGRLQVAGRKGFPHVIYARLWRWPDLHKNELKHVKYCQYAFDLKCDSVCVNPYHYERVVSPGIDLSGLTLQSNAPSSMMVKDEYVHDFEGQPSLSTEGHSIQTIQHPPSNRASTETYSTPALLAPSESNATSTANFPNIPVASTSQPASILGGSHSEGLLQIASGPQPGQQQNGFTGQPATYHHNSTTTWTGSRTAPYTPNLPHHQNGHLQHHPPMPPHPGHYWPVHNELAFQPPISNHPAPEYWCSIAYFEMDVQVGETFKVPSSCPIVTVDGYVDPSGGDRFCLGQLSNVHRTEAIERARLHIGKGVQLECKGEGDVWVRCLSDHAVFVQSYYLDREAGRAPGDAVHKIYPSAYIKVFDLRQCHRQMQQQAATAQAAAAAQAAAVAGNIPGPGSVGGIAPAISLSAAAGIGVDDLRRLCILRMSFVKGWGPDYPRQSIKETPCWIEIHLHRALQLLDEVLHTMPIADPQPLD
partner: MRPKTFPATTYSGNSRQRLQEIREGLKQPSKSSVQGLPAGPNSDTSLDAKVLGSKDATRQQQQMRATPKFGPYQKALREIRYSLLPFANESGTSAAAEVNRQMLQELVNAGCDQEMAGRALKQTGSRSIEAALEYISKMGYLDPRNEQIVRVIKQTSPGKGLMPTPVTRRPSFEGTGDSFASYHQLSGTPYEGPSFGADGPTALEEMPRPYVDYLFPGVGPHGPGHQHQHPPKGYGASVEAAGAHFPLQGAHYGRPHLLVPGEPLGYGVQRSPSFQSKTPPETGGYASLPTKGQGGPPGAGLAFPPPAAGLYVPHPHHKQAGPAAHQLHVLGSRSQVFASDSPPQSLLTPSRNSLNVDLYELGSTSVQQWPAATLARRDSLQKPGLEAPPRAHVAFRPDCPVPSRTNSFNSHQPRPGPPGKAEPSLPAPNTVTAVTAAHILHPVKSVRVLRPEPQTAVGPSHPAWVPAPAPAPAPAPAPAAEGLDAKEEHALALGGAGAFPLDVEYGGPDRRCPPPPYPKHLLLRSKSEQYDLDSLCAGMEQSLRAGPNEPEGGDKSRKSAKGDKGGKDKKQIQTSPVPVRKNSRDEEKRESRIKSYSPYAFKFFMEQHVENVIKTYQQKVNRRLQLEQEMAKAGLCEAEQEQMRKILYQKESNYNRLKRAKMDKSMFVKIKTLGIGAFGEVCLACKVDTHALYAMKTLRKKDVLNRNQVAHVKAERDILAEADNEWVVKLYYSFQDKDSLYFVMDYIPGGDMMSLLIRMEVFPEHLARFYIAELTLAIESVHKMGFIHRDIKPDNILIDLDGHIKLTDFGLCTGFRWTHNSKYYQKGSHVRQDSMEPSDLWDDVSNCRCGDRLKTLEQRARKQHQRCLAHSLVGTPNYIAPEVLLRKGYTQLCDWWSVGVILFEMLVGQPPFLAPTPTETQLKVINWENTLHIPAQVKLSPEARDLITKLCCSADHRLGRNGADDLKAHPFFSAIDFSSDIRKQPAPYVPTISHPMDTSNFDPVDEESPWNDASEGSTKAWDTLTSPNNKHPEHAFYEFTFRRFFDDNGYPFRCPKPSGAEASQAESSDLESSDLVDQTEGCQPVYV
B2: Mothers against decapentaplegic homolog 4 (Homo sapiens), Q13485 (parent)
chain: B1 chain
partner: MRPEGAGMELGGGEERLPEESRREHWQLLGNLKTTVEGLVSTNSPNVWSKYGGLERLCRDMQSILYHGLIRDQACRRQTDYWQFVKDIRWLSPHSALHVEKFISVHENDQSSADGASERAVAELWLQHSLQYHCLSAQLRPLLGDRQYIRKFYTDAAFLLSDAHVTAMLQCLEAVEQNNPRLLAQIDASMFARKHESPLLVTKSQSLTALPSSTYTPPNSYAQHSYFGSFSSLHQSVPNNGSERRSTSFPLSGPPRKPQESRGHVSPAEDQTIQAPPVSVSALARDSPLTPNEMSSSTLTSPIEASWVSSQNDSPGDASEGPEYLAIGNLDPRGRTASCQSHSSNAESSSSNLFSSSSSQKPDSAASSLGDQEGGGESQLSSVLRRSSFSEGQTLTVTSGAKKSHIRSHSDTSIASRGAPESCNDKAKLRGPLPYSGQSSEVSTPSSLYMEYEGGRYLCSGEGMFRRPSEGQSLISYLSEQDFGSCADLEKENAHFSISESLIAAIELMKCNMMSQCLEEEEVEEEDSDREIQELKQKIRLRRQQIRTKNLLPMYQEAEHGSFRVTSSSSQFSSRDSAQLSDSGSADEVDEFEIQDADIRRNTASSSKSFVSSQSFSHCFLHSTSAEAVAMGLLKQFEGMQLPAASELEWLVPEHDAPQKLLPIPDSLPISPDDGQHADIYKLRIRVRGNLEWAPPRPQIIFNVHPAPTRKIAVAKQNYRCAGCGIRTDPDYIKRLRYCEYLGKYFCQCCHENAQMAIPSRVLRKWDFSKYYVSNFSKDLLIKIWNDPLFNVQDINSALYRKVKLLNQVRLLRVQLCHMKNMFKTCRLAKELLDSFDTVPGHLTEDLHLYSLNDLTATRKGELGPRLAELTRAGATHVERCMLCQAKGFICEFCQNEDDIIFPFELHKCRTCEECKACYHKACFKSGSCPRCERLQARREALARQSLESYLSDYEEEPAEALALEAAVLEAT
B3: Mothers against decapentaplegic homolog 4 (Homo sapiens), Q13485 (parent)
chain: B1 chain
partner: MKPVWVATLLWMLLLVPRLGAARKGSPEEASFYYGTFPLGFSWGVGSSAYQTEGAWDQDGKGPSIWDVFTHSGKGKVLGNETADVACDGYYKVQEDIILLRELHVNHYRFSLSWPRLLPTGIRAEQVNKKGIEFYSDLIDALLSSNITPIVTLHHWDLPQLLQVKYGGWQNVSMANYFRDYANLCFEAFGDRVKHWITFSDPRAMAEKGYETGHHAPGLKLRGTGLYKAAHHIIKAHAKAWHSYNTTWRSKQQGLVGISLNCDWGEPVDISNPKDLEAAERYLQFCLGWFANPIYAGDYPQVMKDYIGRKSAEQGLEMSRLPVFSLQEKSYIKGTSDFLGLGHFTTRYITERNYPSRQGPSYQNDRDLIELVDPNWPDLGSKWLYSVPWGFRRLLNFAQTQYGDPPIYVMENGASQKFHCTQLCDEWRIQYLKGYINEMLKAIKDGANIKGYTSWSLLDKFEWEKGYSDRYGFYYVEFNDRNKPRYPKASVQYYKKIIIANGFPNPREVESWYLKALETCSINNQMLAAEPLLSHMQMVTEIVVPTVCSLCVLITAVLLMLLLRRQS
B4: Mothers against decapentaplegic homolog 4 (Homo sapiens), Q13485 (parent)
chain: B1 chain
partner: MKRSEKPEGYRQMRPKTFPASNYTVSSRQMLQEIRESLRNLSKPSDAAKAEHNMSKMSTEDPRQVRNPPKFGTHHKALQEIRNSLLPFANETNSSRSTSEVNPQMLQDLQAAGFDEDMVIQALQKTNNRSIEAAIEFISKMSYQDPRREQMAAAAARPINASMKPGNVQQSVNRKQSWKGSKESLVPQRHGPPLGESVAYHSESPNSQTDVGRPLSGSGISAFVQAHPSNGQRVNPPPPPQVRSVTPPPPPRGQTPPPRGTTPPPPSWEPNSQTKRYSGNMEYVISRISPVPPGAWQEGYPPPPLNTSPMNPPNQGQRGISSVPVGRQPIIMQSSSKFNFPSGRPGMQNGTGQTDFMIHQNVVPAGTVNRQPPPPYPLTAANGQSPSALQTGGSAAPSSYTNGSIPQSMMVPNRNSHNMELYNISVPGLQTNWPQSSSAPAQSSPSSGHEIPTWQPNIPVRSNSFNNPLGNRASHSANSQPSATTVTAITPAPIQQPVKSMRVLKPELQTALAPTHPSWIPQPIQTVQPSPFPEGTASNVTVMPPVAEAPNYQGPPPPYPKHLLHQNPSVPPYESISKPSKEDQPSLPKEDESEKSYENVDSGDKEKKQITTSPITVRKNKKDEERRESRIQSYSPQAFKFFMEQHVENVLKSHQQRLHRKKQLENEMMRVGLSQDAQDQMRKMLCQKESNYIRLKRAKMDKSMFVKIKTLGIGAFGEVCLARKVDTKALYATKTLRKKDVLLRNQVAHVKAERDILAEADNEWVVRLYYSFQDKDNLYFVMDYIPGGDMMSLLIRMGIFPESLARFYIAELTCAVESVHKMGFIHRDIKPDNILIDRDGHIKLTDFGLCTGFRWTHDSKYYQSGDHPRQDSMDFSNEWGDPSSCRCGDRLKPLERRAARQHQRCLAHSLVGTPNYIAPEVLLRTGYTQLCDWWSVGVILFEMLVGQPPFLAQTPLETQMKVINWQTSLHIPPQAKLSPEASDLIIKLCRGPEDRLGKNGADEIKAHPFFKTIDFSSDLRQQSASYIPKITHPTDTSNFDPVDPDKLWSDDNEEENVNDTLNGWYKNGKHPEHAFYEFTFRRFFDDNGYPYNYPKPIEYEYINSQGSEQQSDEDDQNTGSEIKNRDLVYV

One experiment covers variants of B1. The note with it: with lats2_human LATS2, Q9NRM7.
Regarding G386D, the “effect of a mutation on the interaction” value is listed as “with no effect”.

Variants of B1 are the subject of the next experiment. The note with it: with lats2_human LATS2, Q9NRM7. The source holds these as a separate data set.
Regarding R361H, the “effect of a mutation on the interaction” value is listed as “with no effect”.

Another experiment covers variants of B1. The settings on record: with lats2_human LATS2, Q9NRM7. This is another data set of the same source.
For the variant R361C, the “effect of a mutation on the interaction” value was “with no effect”.

In a further experiment the parent is B2. The note with it: with rubic_human RUBCN.
In the case of R361C, the “effect of a mutation on the interaction” value was “with no effect”.

The variants in a further experiment derive from B2. The settings on record: with rubic_human RUBCN. The source holds these as a separate data set.
As to R361H, the “effect of a mutation on the interaction” value was “with no effect”.

A further experiment covers variants of B2. The note with it: with rubic_human RUBCN. This is another data set of the same source.
Consider G386D, for which the “effect of a mutation on the interaction” value is “with no effect”.

In a further experiment the parent is B2. The settings on record: with rubic_human RUBCN. This is another data set of the same source.
Turning to D351H, the “effect of a mutation on the interaction” value was “with no effect”.

Variants of B3 are the subject of another experiment. The note with it: with lctl_human LCTL.
Regarding D351H, the “effect of a mutation on the interaction” value is “with no effect”.

Another experiment covers variants of B3. The settings on record: with lctl_human LCTL. This is another data set of the same source.
G386D: the “effect of a mutation on the interaction” value is reported as “with no effect”.

The next experiment covers variants of B4. The note with it: with lats1_human LATS1, O95835.
Take D351H: the “effect of a mutation on the interaction” value is listed as “with no effect”.

The variants in a further experiment derive from B4. The settings on record: with lats1_human LATS1, O95835. This is another data set of the same source.
G386D: the “effect of a mutation on the interaction” value is reported as “with no effect”.

In a further experiment the parent is B4. The note with it: with lats1_human LATS1, O95835. This is another data set of the same source.
Consider G386D, for which the “effect of a mutation on the interaction” value is recorded as “increasing interaction strength”.
